Earlier results, collected in PMC12192639.

Experiments:
[1] = biological target: SSB C-terminal peptide last eight amino acids (Escherichia coli) (UniProt P0AGE0)
RecO (Escherichia coli) = RecO (Escherichia coli) (UniProt B1XB39)

UniProt P0AGE0, sequence (P0AGE0 whole entry, looked up): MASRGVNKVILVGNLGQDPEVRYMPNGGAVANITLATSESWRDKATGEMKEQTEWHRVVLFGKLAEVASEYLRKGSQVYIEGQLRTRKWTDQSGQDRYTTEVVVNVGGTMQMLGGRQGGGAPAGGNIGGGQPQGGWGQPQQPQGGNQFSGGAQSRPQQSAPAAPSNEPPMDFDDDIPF

RecO (from UniProt B1XB39)
Kd [1]: 150 nM

RecR (from UniProt C4ZUS6)
Kd (RecO (Escherichia coli)): 126 nM
